T1: hCNTN3 (Homo sapiens (Human), UniProt Q9P232)
T1 chain: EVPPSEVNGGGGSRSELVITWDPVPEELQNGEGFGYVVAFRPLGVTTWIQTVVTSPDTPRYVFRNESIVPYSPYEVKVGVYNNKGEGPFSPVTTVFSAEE

T2: hCNTN5 (Homo sapiens (Human), UniProt O94779)
T2 chain: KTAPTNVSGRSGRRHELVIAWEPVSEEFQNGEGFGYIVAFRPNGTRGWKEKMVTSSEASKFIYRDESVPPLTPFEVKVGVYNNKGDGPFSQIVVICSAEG


Tests used:
hCNTN3 = target: T1, hCNTN3; experiment: BLI steady state, CNTN FN1-FN3 over biotinylated E1
hCNTN5 = target: T2, hCNTN5; experiment: as above

Kd (hCNTN3) [µM] | Kd (hCNTN5) [µM] | Binder
9.1 | 10.9 | hAPLP1 (protein) GEFVSEALLVPEGCRFLHQERMDQCESSTRRHQEAQEACSSQGLILHGSGMLLPCGSDRFRGVEYVCCPP
 | 38.6 | hAPLP2 (protein) GEFVSDVLLVPEKCQFFHKERMEVCENHQHWHTVVKEACLTQGMTLYSYGMLLPCGVDQFHGTEYVCCPQ

From article PMC8808184 (2021)
